According to US20040038369A1, “Airway-specific trypsin-like enzymes and method of using the same” (priority 2000, published 2004):

System: NCI-H292 cells
Test: AB-PAS staining of mucus glycoprotein in NCI-H292 cells
Type: cell-based, human
Settings: FIG. 1 and 2
Description: NCI-H292 cells (human pulmonary mucoepidermoid tumor cell strain, purchased from ATCC) were suspended in 10% FCS (Fetal Calf Serum)-containing RPMI-1640 (produced by Gibco Corp.), sowed on a Lab-Tek 8 well chamber slide (produced by Nunc Corp.) in a density of 6.0×10^4 cells/cm^2, cultured for 72 hours, subjected to the replacement of the culture solution by RPMI-1640 containing 0.1% of BSA, and further cultured for 24 hours.
On the day of the treatment, the culture solution of each well was replaced by RPMI-1640 (containing 0.1% BSA) containing EGF (5 ng/mL, produced by Becton Dickinson Corp.), HB-EGF (5 ng/mL, produced by R & D Corp.), TGF-α (5 ng/mL, produced by Peprotech Corp.), or PBS to start the treatment. Then, the cells were incubated at 37° C. for 24 hours.
After the prescribed 24 hours treatment, the culture supernatant was removed. The residue was once washed with PBS, mixed with 4% paraformaldehyde/PBS, and then allowed to stand at room temperature for one hour to immobilize the cells. The immobilized cells were twice washed with Milli Q water and then stained with AB-PAS. The staining was carried out according to a book (“All of new dyeing methods” p136-150 (Iyaku Shuppansha)). […]

B1: EGF: Epidermal Growth Factor, EGFR ligand, produced by Becton Dickinson Corp. (protein)
chain: PQHWSCPEGTLAGNGNSTCVGPAPFLIFSHGNSIFRIDTEGTNYEQLVVDAGVSVIMDFHYNEKRIYWVDLERQLLQRVFLNGSRQERVCNIEKNVSGMAINWINEEVIWSNQQEGIITVTDMKGNNSHILLSALKYPANVAVDPVERFIFWSSEVAGSLYRADLDGVGVKALLETSEKITAVSLDVLDKRLFWIQYNREGSNSLICSCDYDGGSVHISKHPTQHNLFAMSLFGDRIFYSTWKMKTIWIANKHTGKDMVRINLHSSFVPLGELKVVHPLAQPKAEDDTWEPEQKLCKLRKGNCSSTVCGQDLQSHLCMCAEGYALSRDRKYCEDVNECAFWNHGCTLGCKNTPGSYYCTCPVGFVLLPDGKRCHQLVSCPRNVSECSHDCVLTSEGPLCFCPEGSVLERDGKTCSGCSSPDNGGCSQLCVPLSPVSWECDCFPGYDLQLDEKSCAASGPQPFLLFANSQDIRHMHFDGTDYGTLLSQQMGMVYALDHDPVENKIYFAHTALKWIERANMDGSQRERLIEEGVDVPEGLAVDWIGRRFYWTDRGKSLIGRSDLNGKRSKIITKENISQPRGIAVHPMAKRLFWTDTGINPRIESSSLQGLGRLVIASSDLIWPSGITIDFLTDKLYWCDAKQSVIEMANLDGSKRRRLTQNDVGHPFAVAVFEDYVWFSDWAMPSVMRVNKRTGKDRVRLQGSMLKPSSLVVVHPLAKPGADPCLYQNGGCEHICKKRLGTAWCSCREGFMKASDGKTCLALDGHQLLAGGEVDLKNQVTPLDILSKTRVSEDNITESQHMLVAEIMVSDQDDCAPVGCSMYARCISEGEDATCQCLKGFAGDGKLCSDIDECEMGVPVCPPASSKCINTEGGYVCRCSEGYQGDGIHCLDIDECQLGEHSCGENASCTNTEGGYTCMCAGRLSEPGLICPDSTPPPHLREDDHHYSVRNSDSECPLSHDGYCLHDGVCMYIEALDKYACNCVVGYIGERCQYRDLKWWELRHAGHGQQQKVIVVAVCVVVLVMLLLLSLWGAHYYRTQKLLSKNPKNPYEESSRDVRSRRPADTEDGMSSCPQPWFVVIKEHQDLKNGGQPVAGEDGQAADGSMQPTSWRQEPQLCGMGTEQGCWIPVSSDKGSCPQVMERSFHMPSYGTQTLEGGVEKPHSLLSANPLWQQRALDPPHQMELTQ
**Q.** For B1, which “production of the mucus glycoprotein” value is on record?
**A.** promoted
